Laboratory results published in PMC6925385, “Dual role of a GTPase conformational switch for membrane fusion by mitofusin ubiquitylation” (Life Science Alliance, 2019).

Molecular target: the molecule itself
Test: sucrose gradient centrifugation; crude mitochondrial extracts solubilized with 1% digitonin at low protein density (pellet in 500 μl, 10× less dense); 5-25% sucrose gradient, 14-16 h at 4°C; fractions blotted for HA

B1: HA-tagged Fzo1 (yeast mitofusin), wild type (natural protein, yeast (strains isogenic to S288c), UniProt P38297 1-855, looked up)
chain: MSEGKQQFKDSNKPHKDSTDQDDDAATIVPQTLTYSRNEGHFLGSNFHGVTDDRTTLFDGEEGRREDDLLPSLRSSNSKAHLISSQLSQWNYNNNRVLLKRSILKTQAFMDQLQEENNIRPIFIAANDEREKLHVLQLNIKLDGQYNTKEKNGFNIEKKALSKLFHSQIVSVTNHLNALKKRVDDVSSKVFITGDVNTGKSALCNSLLKQRLLPEDQLPCTNVFSEILEARENDGIEEVHAIPLNIAPTLKEAIDMYSIQNPKTYEIHTLKELPDLVPQNGKYALLKIYIKDDKRPASTSLLRNGTVDISLIDSPGLNMDSLQTAEVMSRQEEIDLVIFVVNAENQLTLSAKEFISLASREKKLMFFVVKKFDKIRDKQRCKELILKQIRDLSPETYKRAADFVHFVSKNGDELPHYHNENDNEDHGDRKPDDDPYSSSDPDPDFDSLEDSLRNFVLKKRSLSKLLPAKTYLSKLLSDIIMISKSNMKMYSEEEIKINEQLETLRPEILSARAKCNDLTTSVDQMAEQTITMTYNNTKEALLNALDVPLHEYPKYQGLGQIYDFIFSTEAFIANQIDESIGSSELFAKQKTDLLVKKIYEIGKNELGDDFMCERVFRSELMFRKRKHLIGKRLKVSLSITDLFAPTWKGFLSYLSWQKPVTAPLPDIEGQTNEGQIGLMKYLGLKNYPLTQYWSRPSLLFTSKIPTLTLYFLGSTKVVGNIILNGIKLSSWSSLKKLSVPVIVVGSLLGLTYLIHDLPRALPMNLSIKYKRKLQELDYIHLNAQRTSNEVRDVLRVPTREILRSCEIIMDKKQITKKELENKKESNLLSIKFFQSLYEGTVAQKLMVEEINLDID
modifications: unmodified and ubiquitylated forms both present; K48-linked ubiquitin chains conjugated to lysine 398
notes: Fzo1, the yeast mitofusin (large dynamin-related GTPase of the mitochondrial outer membrane); The immunoprecipitate holds a mix of unmodified and ubiquitylated Fzo1; also called HA-Fzo1; wt Fzo1; source: yeast (isogenic to S288c), genomically HA-tagged or expressed from the centromeric plasmid pRS316 in Δfzo1 cells; in solubilized crude mitochondrial extracts
**Q.** For B1, which “stoichiometry N” value is on record?
**A.** Its value is 2.
